Where a SMILES comes first, the peptide text is derived from it. The star is where a group is joined. X1 = COc1ccc2c3c1O[C@H]1C(O*)=CC[C@H]4[C@@H](C2)N(C)CC[C@]314
What was measured:
[1] = Oral bioavailability of hydrocodone conjugates in rats, LC/MS/MS; settings: for AUC (ng/ml h) 0-8 h / Cmax: hydrocodone plus hydromorphone; for Percent HC (AUC) / Percent HC (Cmax): relative to hydrocodone bitartrate; for Percent HC + HM (AUC) / Percent HC + HM (Cmax): relative to parameter following hydrocodone bitartrate
[2] = Intranasal bioavailability of hydrocodone conjugates in rats, LC/MS/MS; settings: intranasal, 1 mg/kg
[3] = oral, 1 mg/kg hydrocodone base content
[4] = oral, 1 mg/kg hydrocodone base content, 0 h
[5] = oral, 1 mg/kg hydrocodone base content, 0.1 h
[6] = oral, 1 mg/kg hydrocodone base content, 1.0 h
[7] = oral, 1 mg/kg hydrocodone base content, 2.0 h
[8] = oral, 1 mg/kg hydrocodone base content, 4.0 h
[9] = oral, 2 mg/kg hydrocodone base content
[10] = oral, 2 mg/kg hydrocodone base content, 0 h
[11] = oral, 2 mg/kg hydrocodone base content, 0.1 h
[12] = oral, 2 mg/kg hydrocodone base content, 0.5 h
[13] = oral, 2 mg/kg hydrocodone base content, 1.0 h
[14] = oral, 2 mg/kg hydrocodone base content, 2.0 h
[15] = oral, 2 mg/kg hydrocodone base content, 4.0 h
[16] = oral, 5 mg/kg hydrocodone base content
[17] = oral, 5 mg/kg hydrocodone base content, 0 h
[18] = oral, 5 mg/kg hydrocodone base content, 0.1 h
[19] = oral, 5 mg/kg hydrocodone base content, 0.5 h
[20] = oral, 5 mg/kg hydrocodone base content, 1.0 h
[21] = oral, 5 mg/kg hydrocodone base content, 2.0 h
[22] = oral, 5 mg/kg hydrocodone base content, 4.0 h
[23] = oral, 25 mg/kg hydrocodone base content
[24] = oral, 25 mg/kg hydrocodone base content, 0 h
[25] = oral, 25 mg/kg hydrocodone base content, 0.1 h
[26] = oral, 25 mg/kg hydrocodone base content, 0.5 h
[27] = oral, 25 mg/kg hydrocodone base content, 1.0 h
[28] = oral, 25 mg/kg hydrocodone base content, 2.0 h
[29] = oral, 25 mg/kg hydrocodone base content, 4.0 h

CC[C@H](C)[C@H](NC(=O)[C@H](Cc1ccccc1)NC(=O)[C@H](Cc1ccccc1)NC(=O)[C@H](Cc1ccc(O)cc1)NC(=O)[C@@H](N)Cc1ccc(O)cc1)C(=O)OC1=CC[C@H]2[C@H]3Cc4ccc(OC)c5c4[C@@]2(CCN3C)[C@H]1O5 [YYFFI[SEQ ID NO: 8]-HC, Tyr-Tyr-Phe-Phe-Ile[SEQ ID NO: 8]-(6-O)-Hydrocodone] (H-YYFFI-X1)
Percent Decrease 1 mg/kg vs. 5 mg/kg AUC ([1]; oral bioavailability): 15%
Percent Decrease 1 mg/kg vs. 5 mg/kg Cmax ([1]; oral bioavailability): 23%
hydrocodone plus hydromorphone concentration ([1]; oral, 1 mg/kg dose, 0.5 Hours): 7 ng/mL
hydrocodone plus hydromorphone concentration ([1]; oral, 1 mg/kg dose, 1.0 Hours): 3.7 ng/mL
hydrocodone plus hydromorphone concentration ([1]; oral, 1 mg/kg dose, 1.5 Hours): 4.3 ng/mL
hydrocodone plus hydromorphone concentration ([1]; oral, 1 mg/kg dose, 3 Hours): 1.4 ng/mL
hydrocodone plus hydromorphone concentration ([1]; oral, 1 mg/kg dose, 5 Hours): 1.1 ng/mL
hydrocodone plus hydromorphone concentration ([1]; oral, 1 mg/kg dose, 8 Hours): 0 ng/mL
AUC (ng/ml h) 0-8 h ([1]; oral, 1 mg/kg dose): 14.9 ng·h/mL
Cmax ([1]; oral, 1 mg/kg dose): 7 ng/mL
Percent HC (AUC) ([1]; oral, 1 mg/kg dose): 110%
Percent HC (Cmax) ([1]; oral, 1 mg/kg dose): 81%
Hydrocodone AUC [1, 3]: 26.3
Hydrocodone Cmax [1, 3]: 20.3 ng/mL
Hydrocodone plus hydromorphone AUC, Percent HC relative to hydrocodone bitartrate [1, 3]: 64%
Hydrocodone plus hydromorphone Cmax [1, 3]: 20.8 ng/mL
Hydrocodone plus hydromorphone Cmax, Percent HC relative to hydrocodone bitartrate [1, 3]: 18%
Hydromorphone AUC, Percent HM relative to hydrocodone bitartrate [1, 3]: 97%
Hydromorphone Cmax [1, 3]: 2.9 ng/mL
Hydromorphone Cmax, Percent HM relative to hydrocodone bitartrate [1, 3]: 89%
Mean hydrocodone plus hydromorphone concentration [1, 4]: 0 ng/mL
Mean hydromorphone concentration [1, 4]: 0 ng/mL
Mean hydrocodone concentration ([1]; oral, 1 mg/kg hydrocodone base content, 0 Hours): 0 ng/mL
Mean hydrocodone concentration ([1]; oral, 1 mg/kg hydrocodone base content, 0.1 Hours): 20.3 ng/mL
Mean hydrocodone concentration ([1]; oral, 1 mg/kg hydrocodone base content, 0.5 Hours): 17.9 ng/mL
Mean hydrocodone concentration ([1]; oral, 1 mg/kg hydrocodone base content, 1.0 Hours): 10.4 ng/mL
Mean hydrocodone concentration ([1]; oral, 1 mg/kg hydrocodone base content, 2.0 Hours): 2.8 ng/mL
Mean hydrocodone concentration ([1]; oral, 1 mg/kg hydrocodone base content, 4.0 Hours): 1.2 ng/mL
Mean hydrocodone plus hydromorphone concentration [1, 5]: 20.6 ng/mL
Mean hydromorphone concentration [1, 5]: 0.27 ng/mL
Mean hydromorphone concentration ([1]; oral, 1 mg/kg hydrocodone base content, 0.5 h): 2.87 ng/mL
Mean hydrocodone plus hydromorphone concentration [1, 6]: 12.8 ng/mL
Mean hydromorphone concentration [1, 6]: 2.39 ng/mL
Mean hydrocodone plus hydromorphone concentration [1, 7]: 5.0 ng/mL
Mean hydromorphone concentration [1, 7]: 2.24 ng/mL
Mean hydrocodone plus hydromorphone concentration [1, 8]: 2.2 ng/mL
Mean hydromorphone concentration [1, 8]: 1.02 ng/mL
Percent HC + HM (AUC) ([1]; oral, 1 mg/kg): 58%
Percent HC + HM (Cmax) ([1]; oral, 1 mg/kg): 18%
Hydrocodone AUC [1, 9]: 48
Hydrocodone Cmax [1, 9]: 35.2 ng/mL
Hydrocodone plus hydromorphone AUC, Percent HC relative to hydrocodone bitartrate [1, 9]: 103%
Hydrocodone plus hydromorphone Cmax [1, 9]: 36.3 ng/mL
Hydrocodone plus hydromorphone Cmax, Percent HC relative to hydrocodone bitartrate [1, 9]: 53%
Hydromorphone AUC, Percent HM relative to hydrocodone bitartrate [1, 9]: 61%
Hydromorphone Cmax [1, 9]: 8.7 ng/mL
Hydromorphone Cmax, Percent HM relative to hydrocodone bitartrate [1, 9]: 48%
Mean hydrocodone plus hydromorphone concentration [1, 10]: 0 ng/mL
Mean hydromorphone concentration [1, 10]: 0 ng/mL
Mean hydrocodone concentration ([1]; oral, 2 mg/kg hydrocodone base content, 0 Hours): 0 ng/mL
Mean hydrocodone concentration ([1]; oral, 2 mg/kg hydrocodone base content, 0.1 Hours): 35.2 ng/mL
Mean hydrocodone concentration ([1]; oral, 2 mg/kg hydrocodone base content, 0.5 Hours): 23 ng/mL
Mean hydrocodone concentration ([1]; oral, 2 mg/kg hydrocodone base content, 1.0 Hours): 14.4 ng/mL
Mean hydrocodone concentration ([1]; oral, 2 mg/kg hydrocodone base content, 2.0 Hours): 9.8 ng/mL
Mean hydrocodone concentration ([1]; oral, 2 mg/kg hydrocodone base content, 4.0 Hours): 3.3 ng/mL
Mean hydrocodone plus hydromorphone concentration [1, 11]: 36.3 ng/mL
Mean hydromorphone concentration [1, 11]: 1.13 ng/mL
Mean hydrocodone plus hydromorphone concentration [1, 12]: 31.7 ng/mL
Mean hydromorphone concentration [1, 12]: 8.74 ng/mL
Mean hydrocodone plus hydromorphone concentration [1, 13]: 18.0 ng/mL
Mean hydromorphone concentration [1, 13]: 3.63 ng/mL
Mean hydrocodone plus hydromorphone concentration [1, 14]: 13.2 ng/mL
Mean hydromorphone concentration [1, 14]: 3.41 ng/mL
Mean hydrocodone plus hydromorphone concentration [1, 15]: 4.2 ng/mL
Mean hydromorphone concentration [1, 15]: 0.88 ng/mL
Percent HC + HM (AUC) ([1]; oral, 2 mg/kg): 126%
Percent HC + HM (Cmax) ([1]; oral, 2 mg/kg): 58%
hydrocodone plus hydromorphone concentration ([1]; oral, 5 mg/kg dose, 0.5 Hours): 46 ng/mL
hydrocodone plus hydromorphone concentration ([1]; oral, 5 mg/kg dose, 1.0 Hours): 33 ng/mL
hydrocodone plus hydromorphone concentration ([1]; oral, 5 mg/kg dose, 1.5 Hours): 34 ng/mL
hydrocodone plus hydromorphone concentration ([1]; oral, 5 mg/kg dose, 3 Hours): 13 ng/mL
hydrocodone plus hydromorphone concentration ([1]; oral, 5 mg/kg dose, 5 Hours): 8.3 ng/mL
hydrocodone plus hydromorphone concentration ([1]; oral, 5 mg/kg dose, 8 Hours): 4.5 ng/mL
AUC (ng/ml h) 0-8 h ([1]; oral, 5 mg/kg dose): 105 ng·h/mL
Cmax ([1]; oral, 5 mg/kg dose): 46 ng/mL
Percent HC (AUC) ([1]; oral, 5 mg/kg dose): 86%
Percent HC (Cmax) ([1]; oral, 5 mg/kg dose): 63%
Hydrocodone AUC [1, 16]: 47
Hydrocodone Cmax [1, 16]: 26.6 ng/mL
Hydrocodone plus hydromorphone Cmax [1, 16]: 32.9 ng/mL
Hydromorphone AUC, Percent HM relative to hydrocodone bitartrate [1, 16]: 51%
Hydromorphone Cmax [1, 16]: 10.4 ng/mL
Hydromorphone Cmax, Percent HM relative to hydrocodone bitartrate [1, 16]: 77%
Mean hydrocodone plus hydromorphone concentration [1, 17]: 0 ng/mL
Mean hydromorphone concentration [1, 17]: 0 ng/mL
Mean hydrocodone concentration ([1]; oral, 5 mg/kg hydrocodone base content, 0 Hours): 0 ng/mL
Mean hydrocodone concentration ([1]; oral, 5 mg/kg hydrocodone base content, 0.1 Hours): 26.6 ng/mL
Mean hydrocodone concentration ([1]; oral, 5 mg/kg hydrocodone base content, 0.5 Hours): 22.5 ng/mL
Mean hydrocodone concentration ([1]; oral, 5 mg/kg hydrocodone base content, 1.0 Hours): 15.1 ng/mL
Mean hydrocodone concentration ([1]; oral, 5 mg/kg hydrocodone base content, 2.0 Hours): 10.3 ng/mL
Mean hydrocodone concentration ([1]; oral, 5 mg/kg hydrocodone base content, 4.0 Hours): 3.6 ng/mL
Mean hydrocodone plus hydromorphone concentration [1, 18]: 27.1 ng/mL
Mean hydromorphone concentration [1, 18]: 0.49 ng/mL
Mean hydrocodone plus hydromorphone concentration [1, 19]: 32.9 ng/mL
Mean hydromorphone concentration [1, 19]: 10.41 ng/mL
Mean hydrocodone plus hydromorphone concentration [1, 20]: 19.9 ng/mL
Mean hydromorphone concentration [1, 20]: 4.82 ng/mL
Mean hydrocodone plus hydromorphone concentration [1, 21]: 13.5 ng/mL
Mean hydromorphone concentration [1, 21]: 3.17 ng/mL
Mean hydrocodone plus hydromorphone concentration [1, 22]: 4.7 ng/mL
Mean hydromorphone concentration [1, 22]: 1.07 ng/mL
Percent HC + HM (AUC) ([1]; oral, 5 mg/kg): 20%
Percent HC + HM (Cmax) ([1]; oral, 5 mg/kg): 4%
Hydrocodone AUC [1, 23]: 135.0
Hydrocodone Cmax [1, 23]: 41.4 ng/mL
Hydrocodone plus hydromorphone Cmax [1, 23]: 49.4 ng/mL
Hydromorphone AUC, Percent HM relative to hydrocodone bitartrate [1, 23]: 33%
Hydromorphone Cmax [1, 23]: 16.2 ng/mL
Hydromorphone Cmax, Percent HM relative to hydrocodone bitartrate [1, 23]: 37%
Mean hydrocodone plus hydromorphone concentration [1, 24]: 0 ng/mL
Mean hydromorphone concentration [1, 24]: 0 ng/mL
Mean hydrocodone concentration ([1]; oral, 25 mg/kg hydrocodone base content, 0 Hours): 0 ng/mL
Mean hydrocodone concentration ([1]; oral, 25 mg/kg hydrocodone base content, 0.1 Hours): 41.4 ng/mL
Mean hydrocodone concentration ([1]; oral, 25 mg/kg hydrocodone base content, 0.5 Hours): 23.3 ng/mL
Mean hydrocodone concentration ([1]; oral, 25 mg/kg hydrocodone base content, 1.0 Hours): 31.0 ng/mL
Mean hydrocodone concentration ([1]; oral, 25 mg/kg hydrocodone base content, 2.0 Hours): 43.9 ng/mL
Mean hydrocodone concentration ([1]; oral, 25 mg/kg hydrocodone base content, 4.0 Hours): 25.0 ng/mL
Mean hydrocodone plus hydromorphone concentration [1, 25]: 49.4 ng/mL
Mean hydromorphone concentration [1, 25]: 8.00 ng/mL
Mean hydrocodone plus hydromorphone concentration [1, 26]: 33.7 ng/mL
Mean hydromorphone concentration [1, 26]: 10.35 ng/mL
Mean hydrocodone plus hydromorphone concentration [1, 27]: 43.7 ng/mL
Mean hydromorphone concentration [1, 27]: 12.70 ng/mL
Mean hydrocodone plus hydromorphone concentration [1, 28]: 60.1 ng/mL
Mean hydromorphone concentration [1, 28]: 16.22 ng/mL
Mean hydrocodone plus hydromorphone concentration [1, 29]: 34.0 ng/mL
Mean hydromorphone concentration [1, 29]: 8.98 ng/mL
Percent HC + HM (AUC) ([1]; oral, 25 mg/kg): 32%
Percent HC + HM (Cmax) ([1]; oral, 25 mg/kg): 10%
Peak levels and bioavailability ([1]; rat, oral, 5 mg/kg): substantially decreased
Mean HC (hydrocodone) concentration ([2]; 0 min): 0 ng/mL
Mean HC + HM concentration ([2]; 0 min): 0 ng/mL
Mean HM (hydromorphone) concentration ([2]; 0 min): 0 ng/mL
Mean HC (hydrocodone) concentration ([2]; 5 min): 28 ng/mL
Mean HC + HM concentration ([2]; 5 min): 28 ng/mL
Mean HM (hydromorphone) concentration ([2]; 5 min): bql^3
Mean HC (hydrocodone) concentration ([2]; 15 min): 27 ng/mL
Mean HC + HM concentration ([2]; 15 min): 27 ng/mL
Mean HM (hydromorphone) concentration ([2]; 15 min): bql^4
Mean HC (hydrocodone) concentration ([2]; 30 min): 16 ng/mL
Mean HC + HM concentration ([2]; 30 min): 16 ng/mL
Mean HM (hydromorphone) concentration ([2]; 30 min): bql^5
Mean HC (hydrocodone) concentration ([2]; 60 min): 21 ng/mL
Mean HC + HM concentration ([2]; 60 min): 21 ng/mL
Mean HM (hydromorphone) concentration ([2]; 60 min): bql^6

Source: US7375083B2, “Pharmaceutical compositions for prevention of overdose or abuse” (Shire LLC, priority 2003, dated 2008)
